Changes are numbered by the printed parent chain. In names and notes the source's numbering stands.
B1: UBE2R1(C93K, S138C, C191S, C223S) (enzyme, human, UniProt P49427 1-236, looked up)
chain: MARPLVPSSQKALLLELKGLQEEPVEGFRVTLVDEGDLYNWEVAIFGPPNTYYEGGYFKARLKFPIDYPYSPPAFRFLTKMWHPNIYETGDVKISILHPPVDDPQSGELPSERWNPTQNVRTILLSVISLLNEPNTFCPANVDASVMYRKWKESKGKDREYTDIIRKQVLGTKVDAERDGVKVPTTLAEYSVKTKAPAPDEGSDLFYDDYYEDGEVEEEADSSFGDDEDDSGTEES
modifications: K93 (C93K) isopeptide-linked to the C terminus of donor ubiquitin; C138 (S138C) cross-linked by BMOE to Ub(K48C,G76S)-Brd4^BD2
notes: UBE2R1 (also known as Cdc34), human, full length; prepared by the same method as UBE2R1(C93K); Stood in the closed cryo-EM sample as part of the cross-linked conjugate m8; also called the E2; source: E. coli BL21(DE3) Rosetta II, purified (His-Trap, ULP1, SEC)
B2: UBE2R1(C93K) (enzyme, human, UniProt P49427 1-236, looked up)
chain: B1 chain with C138S, S191C, S223C
modifications: K93 (C93K) isopeptide-linked to the C terminus of ^15N-labeled ubiquitin
notes: UBE2R1 (also known as Cdc34), human, full length; also called Cdc34 C93K; the E2; source: E. coli BL21(DE3) Rosetta II, purified (His-Trap, ULP1, SEC)

Tests used:
[1] = molecular target: T1, wild-type ubiquitin (donor ubiquitin, Ub^D) (human, UniProt P0CG48 1-76, C terminus isopeptide-linked to K93 of UBE2R1(C93K, S138C, C191S, C223S)); assay: cryo-EM structure; closed cross-linked sample: 6 uM NEDD8-CRL2^VHL (1 equiv), MZ1 (1.5 equiv) and Brd4^BD2-Ub(G76S,K48C)-UBE2R1(C93K, S138C, C191S, C223S)-Ub (1.5 equiv), 10 min at 4 C; 20 mM Hepes, 150 mM NaCl, 0.5 mM TCEP, pH 7.5; Krios 300 keV; ~3.7 A; conditions: both partners purified
T1 construct: wild-type ubiquitin, the cut product of its precursor; Stood in the closed cryo-EM sample as part of the cross-linked conjugate m8

[2] = molecular target: T2, ^15N-labeled ubiquitin (human wild-type Ub residues 1 to 76) (human, UniProt P0CG48 1-76, uniformly ^15N-labeled; C terminus isopeptide-linked to K93 of UBE2R1(C93K) in the conjugate sample); assay: NMR 15N-1H HSQC chemical shift perturbation; ^15N-Ub free against ^15N-Ub isopeptide-linked to UBE2R1(C93K); 150 uM, 298 K, 600 MHz; 20 mM sodium phosphate, 150 mM NaCl, 0.5 mM TCEP, 5% D2O, pH 7.0; conditions: both partners purified
T2 construct: ubiquitin, human wild type, residues 1 to 76; also called ^15N-Ub; Ub(^15N); source: E. coli BL21(DE3) Rosetta II, ^15N autoinducing media, purified (His-Trap, TEV, SEC); not shown: His6, N-terminal, cleaved

Row | Binder | binding result [1] | binding result [2]
1 | B1 | binds | 
2 | B2 |  | binds
